Source: patent publication US12060408B2, “Screening assays, modulators and modulation of activation of Receptor for Advanced Glycation End-products (RAGE)” (Monash University, priority 2017, dated 2024)
Entries after “also recorded” stand apart in the source; their conditions may differ. Ends that are not written are not given here.

How the values were obtained:
CCR2 = target: T1, CCR2 (Homo sapiens, UniProt P41597); assay: Receptor-HIT BRET, β-arrestin2/Venus with RAGE/Rluc8 and CCR2; type: cell-based
T1 construct: expressed in transfected cells; host or cells: HEK293FT, transient
T1 sequence (P41597 whole entry): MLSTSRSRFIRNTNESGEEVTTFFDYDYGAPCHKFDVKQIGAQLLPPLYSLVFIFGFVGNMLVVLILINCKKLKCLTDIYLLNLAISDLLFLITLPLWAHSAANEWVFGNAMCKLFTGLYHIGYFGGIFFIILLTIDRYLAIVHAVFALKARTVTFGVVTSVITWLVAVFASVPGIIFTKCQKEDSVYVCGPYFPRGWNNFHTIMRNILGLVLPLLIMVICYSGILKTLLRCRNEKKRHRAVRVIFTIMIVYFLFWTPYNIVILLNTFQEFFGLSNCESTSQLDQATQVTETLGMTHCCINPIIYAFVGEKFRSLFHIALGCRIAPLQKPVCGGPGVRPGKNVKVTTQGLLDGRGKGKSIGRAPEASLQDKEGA
T1 sequence (P32121 whole entry partner): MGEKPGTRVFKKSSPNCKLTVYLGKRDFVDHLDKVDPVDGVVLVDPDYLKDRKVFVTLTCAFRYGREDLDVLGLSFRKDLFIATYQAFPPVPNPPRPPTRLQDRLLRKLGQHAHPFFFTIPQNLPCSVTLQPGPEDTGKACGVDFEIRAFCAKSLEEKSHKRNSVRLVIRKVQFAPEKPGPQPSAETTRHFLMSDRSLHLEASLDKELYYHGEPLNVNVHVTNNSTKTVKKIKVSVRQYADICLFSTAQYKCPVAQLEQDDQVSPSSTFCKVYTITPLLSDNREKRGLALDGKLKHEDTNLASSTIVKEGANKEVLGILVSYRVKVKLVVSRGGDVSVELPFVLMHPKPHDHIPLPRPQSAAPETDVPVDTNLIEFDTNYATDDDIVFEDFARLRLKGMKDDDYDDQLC
Description: (§1) Bioluminescence Resonance Energy Transfer (BRET)
(§2) BRET is an established technology for studying protein-protein proximity in live cells, particularly involving GPCRs (Pfleger and Eidne, 2006). One protein of interest was linked to a bioluminescent donor enzyme, Rluc8, a variant of Renilla luciferase, and a second linked to an acceptor fluorophore, Venus, a variant of green fluorescent protein. If in close proximity (<10 nm), energy resulting from the rapid oxidation of a cell-permeable coelenterazine substrate by the donor can transfer to the acceptor, which in turn fluoresces at a longer characteristic wavelength.
(§3) Plasmids were transiently co-expressed in human embryonic kidney (HEK) 293FT cells and BRET measurements taken at 37° C. using a POLARstar Omega or LUMIstar plate reader (BMG Labtech, Mornington, Victoria, Australia) with 460-490 nm (‘donor emission’) and 520-550 nm (‘acceptor emission’) filters, or a VICTOR Light plate reader (Perkin Elmer, Glen Waverley, Victoria, Australia) with 400-475 nm (‘donor emission’) and 520-540 nm (‘acceptor emission’) filters, or a CLARIOstar plate reader (BMG Labtech, Mornington, Victoria, Australia) with 420-480 nm (‘donor emission’) and 520-620 nm (‘acceptor emission’) filters. […]
(§4) For BRET kinetic assays, the final pre-treatment reading is presented at the zero time point (time of ligand/vehicle addition). […]

orexin receptor 1 (OxR1) = target: T2, orexin receptor 1 (OxR1) (Homo sapiens, UniProt O43613); assay: Receptor-HIT BRET, β-arrestin2/Venus with RAGE/Rluc8 and orexin receptor 1; type: cell-based
T2 construct: expressed in transfected cells; host or cells: HEK293FT, transient
T2 sequence (O43613 whole entry): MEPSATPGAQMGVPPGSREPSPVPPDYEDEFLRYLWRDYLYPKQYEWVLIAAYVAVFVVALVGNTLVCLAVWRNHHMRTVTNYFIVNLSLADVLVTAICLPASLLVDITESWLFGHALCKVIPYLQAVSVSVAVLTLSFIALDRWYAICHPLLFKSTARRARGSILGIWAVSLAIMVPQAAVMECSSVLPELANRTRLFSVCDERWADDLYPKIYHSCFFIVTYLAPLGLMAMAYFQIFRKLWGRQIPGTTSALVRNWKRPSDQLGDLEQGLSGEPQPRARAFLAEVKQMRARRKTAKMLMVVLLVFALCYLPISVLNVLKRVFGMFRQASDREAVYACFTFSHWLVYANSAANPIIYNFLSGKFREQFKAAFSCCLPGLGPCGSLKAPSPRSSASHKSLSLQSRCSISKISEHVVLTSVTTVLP
T2 sequence (P32121 whole entry partner): as the sequence (P32121 whole entry partner) above
Description: as §1, §2, §3, §4

murine SVEC = assay: Induction of ICAM-1 by Ang II in murine SVEC transfected with RAGE constructs (RT-PCR); type: cell-based, mouse; conditions: transfected construct (FIG. 12)
Description: FIG. 12A. The effect of transfection of murine SVEC with RAGE or RAGE mutants on the induction of ICAM-1 by Ang II compared to vector alone (pc-Neo) as a control, as measured by RT-PCR. Data are mean±SEM; n=6-8 per group. * vs untreated control, # vs neo+Ang II, p<0.05.
FIG. 12B. The effect of transfection with truncated RAGE mutants on the induction of ICAM-1 by Ang II in murine SVEC to identify the smallest fragments with inhibitory activity. Data are mean±SEM; n=6-8 per group, * vs no treatment control, p<0.05.
FIG. 12D. The effect of transfection with single site-specific alanine or lysine mutants of RAGE370-390 on the induction of ICAM-1 by Ang II in murine SVEC. Data are mean±SEM; n=6-8 per group, * vs no treatment control, p<0.05.
(§5) Cellular Expression of Pro-Inflammatory Markers and Mediators by Quantitative Real-Time PCR
After 2 hours of exposure to Ang II (1 μM) or the RAGE ligand, S100A8/A9 (5 ng/ml) cells were placed in Trizol, mRNA extracted and cDNA synthesized. Changes in the gene expression of the NFκB subunit, p65 (RelA) or NFκB-activated target genes (e.g ICAM-1, VCAM-1) were estimated by quantitative real-time RT-PCR, performed using the TaqMan system based on real-time detection of accumulated fluorescence (ABI Prism 7700, Perkin-Elmer Inc, PE Biosystems, Foster City, CA, USA). […]

[1] = test system: RAGE ligand-dependent activation of RAGE; assay: S100A8/A9-induced NFκB activation (p65 gene expression) in CHO cells expressing RAGE constructs; type: cell-based, human; conditions: summary statement, cell system not given
Method: (§6) Generation of Transgenic Chinese Hamster Ovary Cells
(§7) 100 ng of AT1R-Rluc8 construct was transfected into CHO cells using Lipofectamine 2000 (Thermo). Stable transfectants were selected using G418. AT1R—CHO were then transiently transfected with RAGE constructs using Lipofectamine 2000 (Invitrogen) and incubated for 16 h. The Homo sapiens AGER transcript variant 1 coding sequence (NM_001136) was synthesised and cloned between the NheI and XbaI sites of pCIneo (Promega) to generate the vector pCIneo-RAGE. This plasmid was then used to generate a library of mutant AGER clones (NP_001127). Primers 1-RAGE-SP-5′ and mCherry-XhoI-NotI-3′ were used to amplify the coding sequence of mCherry from the vector pmCherry-C1. The resultant PCR product was then used as template for a second PCR using primers 2-RAGE-SP-5′ and mCherry-XhoI-NotI-3′. The PCR product generated was digested with NheI and NotI and inserted between the NheI and NotI sites of pCIneo to generate pCIneo-SP-mCherry. The sequence of the insert was confirmed by DNA sequencing (Micromon, Monash University). […]
as §5
(§8) After 2 hours of exposure to Ang II (1 μM) or the RAGE ligand, S100A8/A9 (5 ng/ml) cells were placed in Trizol, mRNA extracted and cDNA synthesized. Changes in the gene expression of the NFκB subunit, p65 (RelA) or NFκB-activated target genes (e.g ICAM-1, VCAM-1) were estimated by quantitative real-time RT-PCR, performed using the TaqMan system based on real-time detection of accumulated fluorescence (ABI Prism 7700, Perkin-Elmer Inc, PE Biosystems, Foster City, CA, USA). Gene expression was normalized to 18S mRNA and reported as fold change compared to the level of expression in untreated control mice/cells, which were given an arbitrary value of 1.
To measure the induction of NFκB activity by 1 μM Ang II, or 5 ng/ml of the RAGE-ligand S100A8/A9 as a signalling control, AT1R—CHO cells were transfected with 0.4 μg of plasmids encoding NFκB-SEAP or β-galactosidase (β-Gal) using Lipofectamine 2000 (Invitrogen) as per manufacturer's instructions. After 24 hours, cells transfected with each plasmid combination were then treated with Ang II (1 μM) or left untreated and incubated for 4 hours before cell supernatants and cell lysates were collected. Cell supernatants were analysed using a chemiluminescent SEAP reporter gene assay (Roche Applied Science) to detect SEAP production after treatment. To control for transfection efficiency, cell lysates were assayed for β-Gal using a commercially available kit (Promega).

[2] = test system: RAGE ligand-independent activation of RAGE by activated AT1R; assay: Ang II-induced NFκB activation (p65 gene expression, SEAP reporter) in AT1R-CHO cells with RAGE constructs; type: cell-based, human; conditions: summary statement, cell system not given
Method: as §6, §7, §5, §8
Oligopeptides (Cherry-TAT (control), mCherry-TAT-RAGE362-404 and mCherry-S391A-TAT-RAGE362-404 were generated by transformation of the Escherichia coli strain ClearColi BL21 (DE3; Lucigen). A single transformed colony was inoculated into 50 ml 2YT medium containing 100 μg/ml ampicillin and the culture was grown overnight at 37° C. with shaking at 250 rev/min. 10 ml overnight culture was used to inoculate 1 litre 2YT medium containing 100 μg/ml ampicillin and the culture was grown at 37° C. with shaking at 250 rev/min. When the cultures reached an OD600 of 0.8, the temperature was shifted to 15° C. for 30 min after which protein expression was induced by the addition of 1 mM isopropyl β-D-1-thiogalacto-pyranoside (IPTG). Following the addition of IPTG the cultures were grown for ˜16 h at 15° C. with shaking at 250 rev/min. Cells were harvested by centrifugation (3500 g, 4° C., 20 min) and resuspended in ice-cold lysis buffer (50 mM Tris pH 7.4, 300 mM NaCl, 10 mM imidazole and 5 mM beta-mercaptoethanol). The resuspended cells were sonicated and insoluble material was pelleted by centrifugation (13 000 g, 4° C., 30 min). The supernatant was filtered (0.2 μm) and applied onto a gravity-flow column with a 1 ml Ni-NTA Agarose resin bed volume (Qiagen) pre-equilibrated with lysis buffer. After the supernatant was passed over the resin, the column was washed with 100 ml of wash buffer (20 mM imidazole, 50 mM Tris pH 7.4, 150 mM NaCl, 5 mM beta-mercaptoethanol). His-tagged TAT-mCherry and TAT-mCherry-RAGE peptides were eluted from the resin using elution buffer (250 mM imidazole, 50 mM Tris pH 7.4, 150 mM NaCl, 5 mM beta-mercaptoethanol). […]

RAGE = assay: Ang II-induced pro-inflammatory signalling (p65-NFκB expression) in AT1R-CHO / RAGE-AT1R-CHO cells; type: cell-based, human; conditions: pre-treatment with mCherry-S391A-RAGE362-404 0.4 ng/ml; FIG. 10G
TRH receptor 1 (TRHR1) = assay: Receptor-HIT BRET, β-arrestin2/Venus with RAGE/Rluc8 and TRH receptor 1; type: cell-based
Description: as §1, §2, §3, §4

CCR4 = target: T3, CCR4 (Homo sapiens, UniProt P51679); assay: Receptor-HIT BRET, β-arrestin2/Venus with RAGE/Rluc8 and CCR4; type: cell-based
T3 construct: expressed in transfected cells; host or cells: HEK293FT, transient
T3 sequence (P51679 whole entry): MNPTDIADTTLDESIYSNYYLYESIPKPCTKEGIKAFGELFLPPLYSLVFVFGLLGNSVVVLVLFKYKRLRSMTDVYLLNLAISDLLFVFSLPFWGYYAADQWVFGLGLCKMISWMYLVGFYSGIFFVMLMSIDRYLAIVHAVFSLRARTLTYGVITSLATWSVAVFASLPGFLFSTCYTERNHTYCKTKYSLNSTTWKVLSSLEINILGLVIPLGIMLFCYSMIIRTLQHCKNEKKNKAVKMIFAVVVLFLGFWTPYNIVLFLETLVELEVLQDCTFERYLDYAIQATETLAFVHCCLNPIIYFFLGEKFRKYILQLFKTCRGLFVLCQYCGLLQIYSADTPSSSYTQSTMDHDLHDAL
T3 sequence (P32121 whole entry partner): as the sequence (P32121 whole entry partner) above
Description: as §1, §2
Plasmids were transiently co-expressed in human embryonic kidney (HEK) 293FT cells and BRET measurements taken at 37° C. using a POLARstar Omega or LUMIstar plate reader (BMG Labtech, Mornington, Victoria, Australia) with 460-490 nm (‘donor emission’) and 520-550 nm (‘acceptor emission’) filters, or a VICTOR Light plate reader (Perkin Elmer, Glen Waverley, Victoria, Australia) with 400-475 nm (‘donor emission’) and 520-540 nm (‘acceptor emission’) filters, or a CLARIOstar plate reader (BMG Labtech, Mornington, Victoria, Australia) with 420-480 nm (‘donor emission’) and 520-620 nm (‘acceptor emission’) filters.
The BRET ratio was calculated by subtracting the ratio of ‘acceptor emission’ over ‘donor emission’ for a cell sample expressing Rluc8-tagged protein alone from the same ratio for a cell sample expressing both Rluc8 and Venus-tagged proteins. Alternatively, the ligand-induced BRET signal was calculated by subtracting the ratio of ‘acceptor emission’ over ‘donor emission’ for a vehicle-treated cell sample from the same ratio for a second aliquot of the same cells treated with agonist.
For BRET kinetic assays, the final pre-treatment reading is presented at the zero time point (time of ligand/vehicle addition). For the saturation assay, fluorescence after light excitation was measured on an EnVision 2102 multi-label plate reader (PerkinElmer, Glen Waverley, Victoria, Australia) using a 485/14 excitation filter, 535/25 emission filter and D505 mirror. […]

CCR5 = target: T4, CCR5 (Homo sapiens, UniProt P51681); assay: Receptor-HIT BRET, β-arrestin2/Venus with RAGE/Rluc8 and CCR5; type: cell-based
T4 construct: expressed in transfected cells; host or cells: HEK293FT, transient
T4 sequence (P51681 whole entry): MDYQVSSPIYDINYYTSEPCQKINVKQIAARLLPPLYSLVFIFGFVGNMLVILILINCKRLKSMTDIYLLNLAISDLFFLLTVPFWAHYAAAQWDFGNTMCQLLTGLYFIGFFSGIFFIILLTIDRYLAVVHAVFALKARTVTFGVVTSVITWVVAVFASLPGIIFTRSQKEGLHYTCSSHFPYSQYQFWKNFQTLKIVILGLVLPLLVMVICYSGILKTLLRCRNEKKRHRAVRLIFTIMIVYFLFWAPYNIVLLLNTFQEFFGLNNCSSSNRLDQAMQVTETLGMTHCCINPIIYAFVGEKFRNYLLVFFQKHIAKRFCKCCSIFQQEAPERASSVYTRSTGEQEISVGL
T4 sequence (P32121 whole entry partner): as the sequence (P32121 whole entry partner) above
Description: as §1, §2, §3, §4

In the case of “CCL2: monocyte chemotactic protein-1, cognate ligand of CCR2”, the “recruitment of βarrestin2/Venus to CCR2/Rluc8” value (CCR2; control) is reported as “recruitment” and the “recruitment of β-arrestin2/Venus proximal to RAGE/Rluc8” value (from here on “recruitment … to RAGE/Rluc8”) (CCR2; in the presence of CCR2) is reported as “recruitment”.

In the case of “Orexin A (QPLPDCCRQKTCSCRLYELLHGAGNHAAGILTL; not fully specified (residue 1, C-terminus, bridges); cysteine pairing not given here; UniProt O43612 34-66, looked up) [OxA]”, the “recruitment of βarrestin2/Venus to OxR1/Rluc8” value (orexin receptor 1 (OxR1); control) is reported as “recruitment” and the “recruitment … to RAGE/Rluc8” value (orexin receptor 1 (OxR1); in the presence of OxR1) is reported as “recruitment”.

For “Q379EEEEERAELNQ390 (QEEEEERAELNQ; listed as Homo sapiens) [RAGE379-390]”, the “inhibition of Ang II-induced ICAM-1 (acting on wild type RAGE)” value (murine SVEC) was “does not result in a loss of function”, the “inhibition of RAGE ligand-dependent activation of wild-type RAGE (S100A8/A9)” value [1] was “inhibiting” and the “inhibition of RAGE ligand-independent activation of wild-type RAGE by activated AT1R” value [2] was “inhibiting”.

With “R366A-Q367A-RAGE362-404: mutated RAGE cytosolic tail peptide in which the charged patch is altered (LWQRAARRGEERKAPENQEEEEERAELNQSEEPEAGESSTGGP; cytosolic tail peptide; UniProt Q15109 362-404, looked up, variant R366A Q367A)” the “overcoming the inhibition of transactivation conferred by mCherry-S391A-RAGE362-404” value (RAGE) was “able to overcome the inhibition”.

In the case of “RAGE370-404: N-truncated RAGE peptide without the charged patch Diaph1 binding domain (GEERKAPENQEEEEERAELNQSEEPEAGESSTGGP; UniProt Q15109 370-404, looked up, fragment)”, the “overcoming the inhibition of transactivation conferred by mCherry-S391A-RAGE362-404” value (RAGE) is reported as “able to overcome the inhibition”.

With “RAGE385-390: N-truncated RAGE construct eliminating both 380 and 384 (RAELNQ; UniProt Q15109 385-390, looked up, fragment)” the “inhibition of Ang II-induced ICAM-1 (acting on wild type RAGE)” value (murine SVEC) was “loss of the modulatory actions”.

For Thyrotrophin-releasing hormone [TRH], the “recruitment of βarrestin2/Venus to TRHR1/Rluc8” value (TRH receptor 1 (TRHR1); control) was “recruitment” and the “recruitment … to RAGE/Rluc8” value (TRH receptor 1 (TRHR1); in the presence of TRHR1) was “weak recruitment”.

B1: CCL22: chemokine ligand used to activate CCR4 (protein)
chain: GPYGANMEDSVCCRDYVRYRLPLRVVKHFYWTSDSCPRPGVVLLTFRDKEICADPRVPWVKMILNKLSQ
For B1, the “recruitment of βarrestin2/Venus to CCR4/Rluc8” value (CCR4; control) was “recruitment”, the “recruitment … to RAGE/Rluc8” value (CCR4; in the presence of CCR4) was “not and Lack of” and the “BRET signal between Gαi/Nluc and Gγ2/Venus” value (CCR4; untagged CCR4 co-expressed) was “observed”.

B2: CCL4: chemokine ligand used to activate CCR5 (protein)
chain: APMGSDPPTACCFSYTARKLPRNFVVDYYETSSLCSQPAVVFQTKRSKQVCADPSESWVQEYVYDLELN
With B2 the “recruitment of βarrestin2/Venus to CCR5/Rluc8” value (CCR5; control) was “recruitment” and the “recruitment … to RAGE/Rluc8” value (CCR5; in the presence of CCR5) was “particularly weak recruitment; also recorded: Lack of”.
